The chains are these.
T1: EsCas13d, nuclease-dead (Eubacterium siraeum, UniProt B0MS50, R295A;H300A;R849A;H854A)
T1 sequence: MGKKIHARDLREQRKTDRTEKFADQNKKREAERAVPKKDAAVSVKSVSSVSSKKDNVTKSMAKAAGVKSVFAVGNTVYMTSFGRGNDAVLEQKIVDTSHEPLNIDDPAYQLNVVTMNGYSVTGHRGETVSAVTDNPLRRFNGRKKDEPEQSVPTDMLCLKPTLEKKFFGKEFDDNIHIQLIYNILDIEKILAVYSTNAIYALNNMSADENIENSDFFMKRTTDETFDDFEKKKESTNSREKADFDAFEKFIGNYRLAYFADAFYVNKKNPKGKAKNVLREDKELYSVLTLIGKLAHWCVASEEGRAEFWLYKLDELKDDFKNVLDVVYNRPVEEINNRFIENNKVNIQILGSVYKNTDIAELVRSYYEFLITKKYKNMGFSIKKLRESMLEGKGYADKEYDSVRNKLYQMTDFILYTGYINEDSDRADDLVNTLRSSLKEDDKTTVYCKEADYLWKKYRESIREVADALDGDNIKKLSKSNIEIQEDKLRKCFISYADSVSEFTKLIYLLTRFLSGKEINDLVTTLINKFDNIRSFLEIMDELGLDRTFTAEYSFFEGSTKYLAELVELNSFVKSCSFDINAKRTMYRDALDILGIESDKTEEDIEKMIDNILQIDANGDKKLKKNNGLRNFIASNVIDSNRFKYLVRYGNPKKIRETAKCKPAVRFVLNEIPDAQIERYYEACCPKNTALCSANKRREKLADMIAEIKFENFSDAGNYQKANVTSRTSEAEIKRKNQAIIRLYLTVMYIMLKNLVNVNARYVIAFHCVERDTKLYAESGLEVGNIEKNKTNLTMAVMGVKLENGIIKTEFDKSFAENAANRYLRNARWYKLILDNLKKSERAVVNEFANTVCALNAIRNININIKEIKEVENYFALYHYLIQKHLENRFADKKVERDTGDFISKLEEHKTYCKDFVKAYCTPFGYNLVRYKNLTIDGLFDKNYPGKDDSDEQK

B1: target 1 MT 5'PFS AUG 3'PFS CAC (mixed)
RNA 1: CACCCGUGCAAAAAUGCAGGGGUCUAAAACUGAGCGGAUAACCUCUCUAUGG
RNA 2: GGGAAUGGAUCCACAUCUACGAAUUCAUGCCAUAGAGAGGUUAUCCGCUCACACAGAUCGGAAGAGCACACGU
B2: target 1 MT 5'PFS GUC 3'PFS CCC (mixed)
RNA 1: CACCCGUGCAAAAAUGCAGGGGUCUAAAACUGAGCGGAUAACCUCUCUAUGG
RNA 2: GGGAAUGGAUCCACAUCUACGAAUUCGUCCCAUAGAGAGGUUAUCCGCUCACCCAGAUCGGAAGAGCACACGU
B3: target 1 MT 5'PFS GUC 3'PFS CCU (mixed)
RNA 1: CACCCGUGCAAAAAUGCAGGGGUCUAAAACUGAGCGGAUAACCUCUCUAUGG
RNA 2: GGGAAUGGAUCCACAUCUACGAAUUCGUCCCAUAGAGAGGUUAUCCGCUCACCUAGAUCGGAAGAGCACACGU
B4: target 1 MT 5'PFS UAU 3'PFS UCC (mixed)
RNA 1: CACCCGUGCAAAAAUGCAGGGGUCUAAAACUGAGCGGAUAACCUCUCUAUGG
RNA 2: GGGAAUGGAUCCACAUCUACGAAUUCUAUCCAUAGAGAGGUUAUCCGCUCAUCCAGAUCGGAAGAGCACACGU
B5: target 1 MT 5'PFS AGC 3'PFS AGG (mixed)
RNA 1: CACCCGUGCAAAAAUGCAGGGGUCUAAAACUGAGCGGAUAACCUCUCUAUGG
RNA 2: GGGAAUGGAUCCACAUCUACGAAUUCAGCCCAUAGAGAGGUUAUCCGCUCAAGGAGAUCGGAAGAGCACACGU
B6: target 1 MT 5'PFS CCU 3'PFS ACC (mixed)
RNA 1: CACCCGUGCAAAAAUGCAGGGGUCUAAAACUGAGCGGAUAACCUCUCUAUGG
RNA 2: GGGAAUGGAUCCACAUCUACGAAUUCCCUCCAUAGAGAGGUUAUCCGCUCAACCAGAUCGGAAGAGCACACGU
B7: target 1 MT 5'PFS GCG 3'PFS AGA (mixed)
RNA 1: CACCCGUGCAAAAAUGCAGGGGUCUAAAACUGAGCGGAUAACCUCUCUAUGG
RNA 2: GGGAAUGGAUCCACAUCUACGAAUUCGCGCCAUAGAGAGGUUAUCCGCUCAAGAAGAUCGGAAGAGCACACGU
B8: target 1 insG 3' of 9,insU 3' of 1 (mixed)
RNA 1: CACCCGUGCAAAAAUGCAGGGGUCUAAAACUGAGCGGAUAACCUCUCUAUGG
RNA 2: GGGAAUGGAUCCACAUCUACGAAUUCGUACCAUAGAGAGGUUAGUCCGCUCAUCCGAGAUCGGAAGAGCACACGU
B9: target 1 MT 5'PFS GUC 3'PFS CCA (mixed)
RNA 1: CACCCGUGCAAAAAUGCAGGGGUCUAAAACUGAGCGGAUAACCUCUCUAUGG
RNA 2: GGGAAUGGAUCCACAUCUACGAAUUCGUCCCAUAGAGAGGUUAUCCGCUCACCAAGAUCGGAAGAGCACACGU
B10: target 1 MT 5'PFS GAC 3'PFS CCU (mixed)
RNA 1: CACCCGUGCAAAAAUGCAGGGGUCUAAAACUGAGCGGAUAACCUCUCUAUGG
RNA 2: GGGAAUGGAUCCACAUCUACGAAUUCGACCCAUAGAGAGGUUAUCCGCUCACCUAGAUCGGAAGAGCACACGU
B11: target 1 MT 5'PFS CCA 3'PFS AGU (mixed)
RNA 1: CACCCGUGCAAAAAUGCAGGGGUCUAAAACUGAGCGGAUAACCUCUCUAUGG
RNA 2: GGGAAUGGAUCCACAUCUACGAAUUCCCACCAUAGAGAGGUUAUCCGCUCAAGUAGAUCGGAAGAGCACACGU
B12: target 1 MT 5'PFS GCC 3'PFS UAG (mixed)
RNA 1: CACCCGUGCAAAAAUGCAGGGGUCUAAAACUGAGCGGAUAACCUCUCUAUGG
RNA 2: GGGAAUGGAUCCACAUCUACGAAUUCGCCCCAUAGAGAGGUUAUCCGCUCAUAGAGAUCGGAAGAGCACACGU
B13: target 1 MT 5'PFS GUG 3'PFS UGA (mixed)
RNA 1: CACCCGUGCAAAAAUGCAGGGGUCUAAAACUGAGCGGAUAACCUCUCUAUGG
RNA 2: GGGAAUGGAUCCACAUCUACGAAUUCGUGCCAUAGAGAGGUUAUCCGCUCAUGAAGAUCGGAAGAGCACACGU
B14: target 1 MT 5'PFS GCG 3'PFS AGU (mixed)
RNA 1: CACCCGUGCAAAAAUGCAGGGGUCUAAAACUGAGCGGAUAACCUCUCUAUGG
RNA 2: GGGAAUGGAUCCACAUCUACGAAUUCGCGCCAUAGAGAGGUUAUCCGCUCAAGUAGAUCGGAAGAGCACACGU
B15: target 1 insA 3' of 5,insC 3' of 3 (mixed)
RNA 1: CACCCGUGCAAAAAUGCAGGGGUCUAAAACUGAGCGGAUAACCUCUCUAUGG
RNA 2: GGGAAUGGAUCCACAUCUACGAAUUCGUACCAUAGAGAGGUUAUCCGACUCCACCGAGAUCGGAAGAGCACACGU
B16: target 1 C4G,G15A (mixed)
RNA 1: CACCCGUGCAAAAAUGCAGGGGUCUAAAACUGAGCGGAUAACCUCUCUAUGG
RNA 2: GGGAAUGGAUCCACAUCUACGAAUUCGUACCAUAGAAAGGUUAUCCGGUCACCGAGAUCGGAAGAGCACACGU
B17: target 1 MT 5'PFS GCG 3'PFS AGC (mixed)
RNA 1: CACCCGUGCAAAAAUGCAGGGGUCUAAAACUGAGCGGAUAACCUCUCUAUGG
RNA 2: GGGAAUGGAUCCACAUCUACGAAUUCGCGCCAUAGAGAGGUUAUCCGCUCAAGCAGAUCGGAAGAGCACACGU
B18: target 1 MT 5'PFS GGC 3'PFS AUG (mixed)
RNA 1: CACCCGUGCAAAAAUGCAGGGGUCUAAAACUGAGCGGAUAACCUCUCUAUGG
RNA 2: GGGAAUGGAUCCACAUCUACGAAUUCGGCCCAUAGAGAGGUUAUCCGCUCAAUGAGAUCGGAAGAGCACACGU
B19: target 1 MT 5'PFS GGC 3'PFS AUC (mixed)
RNA 1: CACCCGUGCAAAAAUGCAGGGGUCUAAAACUGAGCGGAUAACCUCUCUAUGG
RNA 2: GGGAAUGGAUCCACAUCUACGAAUUCGGCCCAUAGAGAGGUUAUCCGCUCAAUCAGAUCGGAAGAGCACACGU
B20: target 1 MT 5'PFS GGC 3'PFS AUA (mixed)
RNA 1: CACCCGUGCAAAAAUGCAGGGGUCUAAAACUGAGCGGAUAACCUCUCUAUGG
RNA 2: GGGAAUGGAUCCACAUCUACGAAUUCGGCCCAUAGAGAGGUUAUCCGCUCAAUAAGAUCGGAAGAGCACACGU
B21: target 1 MT 5'PFS GCG 3'PFS AGG (mixed)
RNA 1: CACCCGUGCAAAAAUGCAGGGGUCUAAAACUGAGCGGAUAACCUCUCUAUGG
RNA 2: GGGAAUGGAUCCACAUCUACGAAUUCGCGCCAUAGAGAGGUUAUCCGCUCAAGGAGAUCGGAAGAGCACACGU
B22: target 1 MT 5'PFS GUC 3'PFS CCG (mixed)
RNA 1: CACCCGUGCAAAAAUGCAGGGGUCUAAAACUGAGCGGAUAACCUCUCUAUGG
RNA 2: GGGAAUGGAUCCACAUCUACGAAUUCGUCCCAUAGAGAGGUUAUCCGCUCACCGAGAUCGGAAGAGCACACGU
B23: target 1 MT 5'PFS GUG 3'PFS UGU (mixed)
RNA 1: CACCCGUGCAAAAAUGCAGGGGUCUAAAACUGAGCGGAUAACCUCUCUAUGG
RNA 2: GGGAAUGGAUCCACAUCUACGAAUUCGUGCCAUAGAGAGGUUAUCCGCUCAUGUAGAUCGGAAGAGCACACGU
B24: target 1 MT 5'PFS GUG 3'PFS UGG (mixed)
RNA 1: CACCCGUGCAAAAAUGCAGGGGUCUAAAACUGAGCGGAUAACCUCUCUAUGG
RNA 2: GGGAAUGGAUCCACAUCUACGAAUUCGUGCCAUAGAGAGGUUAUCCGCUCAUGGAGAUCGGAAGAGCACACGU
B25: target 1 MT 5'PFS GUG 3'PFS UGC (mixed)
RNA 1: CACCCGUGCAAAAAUGCAGGGGUCUAAAACUGAGCGGAUAACCUCUCUAUGG
RNA 2: GGGAAUGGAUCCACAUCUACGAAUUCGUGCCAUAGAGAGGUUAUCCGCUCAUGCAGAUCGGAAGAGCACACGU
B26: target 1 MT 5'PFS GGC 3'PFS AUU (mixed)
RNA 1: CACCCGUGCAAAAAUGCAGGGGUCUAAAACUGAGCGGAUAACCUCUCUAUGG
RNA 2: GGGAAUGGAUCCACAUCUACGAAUUCGGCCCAUAGAGAGGUUAUCCGCUCAAUUAGAUCGGAAGAGCACACGU
B27: target 1 MT 5'PFS GCC 3'PFS UAC (mixed)
RNA 1: CACCCGUGCAAAAAUGCAGGGGUCUAAAACUGAGCGGAUAACCUCUCUAUGG
RNA 2: GGGAAUGGAUCCACAUCUACGAAUUCGCCCCAUAGAGAGGUUAUCCGCUCAUACAGAUCGGAAGAGCACACGU

In the data set the target is T1, EsCas13d, nuclease-dead. As to the kind of experiment: crRNA (strand 1, pre-loaded); Mg2+; 40 mM Tris-HCl pH 7.5, 150 mM NaCl, 6 mM MgCl2, 1 mM DTT, 0.1% Tween-20, 0.2 mg/ml BSA; 25 C; 10 min per concentration, then washed. The conditions noted are these: tags: His6-TwinStrep-SUMO cleaved; N-terminal SNAP kept (SNAP-Surface 488); label: 3' end held by stalled T7 RNA polymerase.
In general, Kd refers to the equilibrium constant for the complex coming apart. High values mean a looser complex, low ones a tighter complex. As to B1, the Kd is around 0.0295 µM.
The same measure for B2: 0.019 ± 0.009 µM.
The same measure for B3: 0.0154 ± 0.0026 µM; for B4: 0.036 ± 0.0135 µM; for B5: around 0.06 µM.
For the molecule B6, the Kd is around 0.014 µM.
The same measure for B7: 0.0264 ± 0.0048 µM; for B8: 0.0233 ± 0.0034 µM.
Molecule B9 yielded a Kd of around 0.018 µM.
The same measure for B10: around 0.014 µM; for B11: 0.014 ± 0.0059 µM; for B12: 0.0218 ± 0.0061 µM.
The same measure for B13: 0.0149 ± 0.00115 µM.
The same measure for B14: 0.0295 ± 0.007 µM; for B15: 0.0123 ± 0.0022 µM.
As for B16, binding was characterised by a dissociation constant (Kd) of 0.0132 ± 0.0012 µM.
The molecule B17 displayed a Kd of 0.037 ± 0.011 µM.
Molecule B18 came in with a Kd of 0.0225 ± 0.007 µM.
For the molecule B19, the Kd amounted to 0.0425 ± 0.0085 µM.
For B20, the affinity, expressed as Kd, was 0.0166 ± 0.00205 µM.
Consider B21, for which binding was characterised by a dissociation constant (Kd) of 0.1 ± 0.05 µM.
As for B22, binding was put at a Kd of 0.0149 ± 0.00255 µM.
The same measure for B23: 0.0272 ± 0.0024 µM; for B24: 0.11 ± 0.0195 µM.
As for B25, the figure is 0.0094 ± 0.00045 µM; as for B26, 0.0196 ± 0.00475 µM.
B27 gave a Kd of 0.016 ± 0.0055 µM.

Values taken from paper PMC10786891, “Massively parallel profiling of RNA-targeting CRISPR-Cas13d”.
